# B1: TPR t1 (parent)
# chain: GACCAAUCUGCCCUCAGAGCUCGAGAACAUCUUCGGAUGCAGAGGAGGCAGGCUUCGGUGGCGCGAUAGCGCCAACGUCCUCAACCUCCAAUGCAUCCCACCACAUGAUGAUGCCUGAAGAGCCUUGGUUUUUUG
# Variants of: B1
# Experiment: polymerase ribozyme fitness, log enrichment relative to wild type (log ratio); higher = more active; in vitro selection for triplet polymerase activity
# In short: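 Only genotypes with ≥10 input reads and ≥1 read per output were kept after Illumina sequencing of input and output libraries. These libraries were PCR-built, transcribed mutants of each subunit of a heterodimeric triplet polymerase ribozyme, each put through one triplicate in vitro selection round with frozen incubation at −7 °C, gel excision of extended constructs, streptavidin-bead capture and RT-PCR. Fitness is a logarithmic ratio of genotype enrichment to wild-type enrichment, from inverse-variance-weighted replicate averages, with the logarithm in base 2.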
row,Variant,polymerase ribozyme fitness (log ratio)
1,A26C U55G,-5.98
2,A26G G71U,-3.23
3,A26G G93A,-2.29
4,A27C U55C C104U,-3.54
5,A26U U59G C62U,-4.33
6,A27C A90U,-5.3
7,A27G C72A G93C G120U,-2.9
8,A26U U126G,-4.96
9,A26G G65A,-5.09
10,A26G A41G G60C G93A,-2.97
11,A27C C70U,-3.87
12,A27C G45U U106C,-4.75
13,A27C A111U A118U G120A,-5.36
14,A27G C102U,-3.53
15,A26C G63A C82G A90G U112A,-5.15
16,A26U C64U,-3.52
17,A26U A46U C72U,-3.97
18,A27G G45A A83G U130G,-4.37
19,A26U U38A,-4.53
20,A26U G42U G57A U78G U106A,-5.03
21,A27C C94G,-3.57

row,Variant,polymerase ribozyme fitness (log ratio)
1,A27C C94A,-3.32
2,A26C G69U G120U,-2.51
3,A26U G128C,-4.92
4,G25U C64A C98G A111U,-8.01
5,G25C G69U A111U,-7
6,A26U C49U A84C C124G,-2.34
7,A26C G36U A41U G120U U132A,-5.17
8,A26U G60C C86G,-4.99
9,A26G U33G G61A A84C C98U,-5.59
10,A26G C73A A100U,-2.85
11,A26G C49G,-2.93
12,A26U C34A G63C U112G G128C,-7.83
13,A26U C53U U116G,-6.15
14,A27C C40G,-4.98
15,A26U C73A,-2.82
16,A27G A46G C101A,-3.22
17,A26U C53G C80U,-3.08
18,G25C G47A A103U C115G,-7.4
19,A26G A84G C94A A95U,-4.63
20,A26U C34U U59C C85A G113A G127U,-6.04
21,G25A C123A,-6.12

row,Variant,polymerase ribozyme fitness (log ratio)
1,G25C G61C U96C C98A U112G C123U,-6.63
2,G25A A74U A100C U109A U130A,-6.43
3,A27C A118U,-2.67
4,G25C C56U A68U A83G C123A C124G,-6.66
5,A26U G39C G61A A83U G110A A121G,-5.04
6,G25U G120C,-3.76
7,G25U G120A,-3.94
8,A27G C56G C89U G110U,-3.06
9,A27C G45C,-4.29
10,A27G G47C A100U,-4.85
11,A27C U78C,-3.31
12,A27C C73U,-3.12
13,A26G G110U,-2.66
14,A26U G60A U130C,-2.93
15,A26U G61U U87G C98G A121U,-6.57
16,G25A G47U A100U G110U U112A,-6.61
17,A26U C124A,-0.634
18,A26U G60U,-3.37
19,A26U G60A,-3.74
20,A26G C34A G44A C124U,-3.54
21,A26G G60U,-2.17

row,Variant,polymerase ribozyme fitness (log ratio)
1,A26U A50C G58A,-4.45
2,A26C C40G U87C C101U C104U,-5.71
3,A26G A74G G93U U106A U109C,-3.92
4,A26C G39U C114G,-6.59
5,A26U A50U,-4.75
6,A27C C86A,-4.06
7,A26G G48A C49G C73U A121U,-0.344
8,A27G C28U U116C U130C,-5.27
9,A27G A74C C115G,-6.8
10,A27G A41G G71A,-2.99
11,A26G C62U,-1.47
12,A26U G61C U96A C114U G117A,-5.84
13,A26G G44U G61A C99U G120U C124A,-3.22
14,G25A C72U C124A,-6.83
15,A27C G39A C62A C124G,-4.04
16,G25A G71U,-6.24
17,A26G U112A U125A,-1.55
18,A27C A50G G63U G110C U125G,-6.71
19,A26U G48C C86G,-3.65
20,G25C G58A C64A A83C G110C,-6.43
21,A26G C28U G35A U87G C124A,-4.92

# Reference: the RNAGym collection of RNA variant scans (doi:10.1073/pnas.2313332121)
